Patent US20160272683A1 (Novo Nordisk, published 2016)
Numbered stars: 1 amine (or outer) side, 2 acyl side, 3 side chain; on linkers, the order of the positions; unused ones are H or OH. Side chains are listed from the residue outwards. * marks the point of attachment. C20 diacid = O=C(O)CCCCCCCCCCCCCCCCCCC(=O)*; C18 diacid = O=C(O)CCCCCCCCCCCCCCCCC(=O)*; γGlu = O=C(O)[C@H](CCC(=O)[*:2])N[*:1]; Palmitoyl = CCCCCCCCCCCCCCCC(=O)*

Assays:
[1] = target: T1, human amylin 3(a) receptor (human calcitonin receptor co-expressed with RAMP-3) (human, UniProt P30988 25-474; O60896 24-148, limits assumed); experiment: cell-based or functional assay
T1 sequence (looked up) 1: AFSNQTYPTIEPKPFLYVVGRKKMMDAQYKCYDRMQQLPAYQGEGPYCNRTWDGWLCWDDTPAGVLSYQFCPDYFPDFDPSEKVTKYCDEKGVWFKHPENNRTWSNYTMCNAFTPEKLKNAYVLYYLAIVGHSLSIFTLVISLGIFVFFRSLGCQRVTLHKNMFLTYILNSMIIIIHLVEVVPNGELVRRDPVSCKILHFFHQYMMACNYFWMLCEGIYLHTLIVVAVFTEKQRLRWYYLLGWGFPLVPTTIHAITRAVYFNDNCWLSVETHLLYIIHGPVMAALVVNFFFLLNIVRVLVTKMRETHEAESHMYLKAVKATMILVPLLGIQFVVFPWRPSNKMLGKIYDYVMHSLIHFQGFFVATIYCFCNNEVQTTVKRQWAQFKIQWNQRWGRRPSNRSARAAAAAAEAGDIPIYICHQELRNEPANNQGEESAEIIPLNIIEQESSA
T1 sequence (looked up) 2: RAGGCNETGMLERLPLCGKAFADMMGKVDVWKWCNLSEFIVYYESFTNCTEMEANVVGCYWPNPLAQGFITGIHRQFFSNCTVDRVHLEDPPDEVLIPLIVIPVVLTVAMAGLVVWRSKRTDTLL

[2] = target: T2, human calcitonin receptor (human, UniProt P30988 25-474); experiment: cell-based or functional assay
T2 sequence (looked up): T1 sequence (looked up) 1

B1: [N-terminal(C20 diacid-gGlu), des1, 30T, 31G, 32T]mimylin (peptide)
peptide: {C20 diacid-γGlu}-ASELSTAALGRLSAELHELATLPRTETGTGTP-NH2
SMILES: CC(C)C[C@H](NC(=O)[C@H](C)NC(=O)[C@H](C)NC(=O)[C@@H](NC(=O)[C@H](CO)NC(=O)[C@H](CC(C)C)NC(=O)[C@H](CCC(=O)O)NC(=O)[C@H](CO)NC(=O)[C@H](C)NC(=O)CC[C@H](NC(=O)CCCCCCCCCCCCCCCCCCC(=O)O)C(=O)O)[C@@H](C)O)C(=O)NCC(=O)N[C@@H](CCCNC(=N)N)C(=O)N[C@@H](CC(C)C)C(=O)N[C@@H](CO)C(=O)N[C@@H](C)C(=O)N[C@@H](CCC(=O)O)C(=O)N[C@@H](CC(C)C)C(=O)N[C@@H](Cc1c[nH]cn1)C(=O)N[C@@H](CCC(=O)O)C(=O)N[C@@H](CC(C)C)C(=O)N[C@@H](C)C(=O)N[C@H](C(=O)N[C@@H](CC(C)C)C(=O)N1CCC[C@H]1C(=O)N[C@@H](CCCNC(=N)N)C(=O)N[C@H](C(=O)N[C@@H](CCC(=O)O)C(=O)N[C@H](C(=O)NCC(=O)N[C@H](C(=O)NCC(=O)N[C@H](C(=O)N1CCC[C@H]1C(N)=O)[C@@H](C)O)[C@@H](C)O)[C@@H](C)O)[C@@H](C)O)[C@@H](C)O
[1]
  hAmylin-R funct. EC50 (pM): 50 pM
[2]
  hCTR funct. EC50 (pM): 45 pM

B2: [N-terminal(acetyl), des1, 19K(C20 diacid-gGlu), 30S, 31G]mimylin (peptide)
peptide: Ac-ASELSTAALGRLSAELHK([γGlu-C20 diacid])LATLPRTETGSGSP-NH2
[1]
  hAmylin-R funct. EC50 (pM): 32 pM
[2]
  hCTR funct. EC50 (pM): 19 pM

B3: [N-terminal(C20 diacid-gGlu), des1, 15E, 30S, 31G]mimylin (peptide)
peptide: {C20 diacid-γGlu}-ASELSTAALGRLSEELHELATLPRTETGSGSP-NH2
SMILES: CC(C)C[C@H](NC(=O)[C@H](C)NC(=O)[C@H](C)NC(=O)[C@@H](NC(=O)[C@H](CO)NC(=O)[C@H](CC(C)C)NC(=O)[C@H](CCC(=O)O)NC(=O)[C@H](CO)NC(=O)[C@H](C)NC(=O)CC[C@H](NC(=O)CCCCCCCCCCCCCCCCCCC(=O)O)C(=O)O)[C@@H](C)O)C(=O)NCC(=O)N[C@@H](CCCNC(=N)N)C(=O)N[C@@H](CC(C)C)C(=O)N[C@@H](CO)C(=O)N[C@@H](CCC(=O)O)C(=O)N[C@@H](CCC(=O)O)C(=O)N[C@@H](CC(C)C)C(=O)N[C@@H](Cc1c[nH]cn1)C(=O)N[C@@H](CCC(=O)O)C(=O)N[C@@H](CC(C)C)C(=O)N[C@@H](C)C(=O)N[C@H](C(=O)N[C@@H](CC(C)C)C(=O)N1CCC[C@H]1C(=O)N[C@@H](CCCNC(=N)N)C(=O)N[C@H](C(=O)N[C@@H](CCC(=O)O)C(=O)N[C@H](C(=O)NCC(=O)N[C@@H](CO)C(=O)NCC(=O)N[C@@H](CO)C(=O)N1CCC[C@H]1C(N)=O)[C@@H](C)O)[C@@H](C)O)[C@@H](C)O
[1]
  hAmylin-R funct. EC50 (pM): 41 pM
[2]
  hCTR funct. EC50 (pM): 25 pM

B4: [N-terminal(C18 diacid-gGlu), des1, 30S, 31G, 32P]mimylin (peptide)
peptide: {C18 diacid-γGlu}-ASELSTAALGRLSAELHELATLPRTETGSGPP-NH2
SMILES: CC(C)C[C@H](NC(=O)[C@H](C)NC(=O)[C@H](C)NC(=O)[C@@H](NC(=O)[C@H](CO)NC(=O)[C@H](CC(C)C)NC(=O)[C@H](CCC(=O)O)NC(=O)[C@H](CO)NC(=O)[C@H](C)NC(=O)CC[C@H](NC(=O)CCCCCCCCCCCCCCCCC(=O)O)C(=O)O)[C@@H](C)O)C(=O)NCC(=O)N[C@@H](CCCNC(=N)N)C(=O)N[C@@H](CC(C)C)C(=O)N[C@@H](CO)C(=O)N[C@@H](C)C(=O)N[C@@H](CCC(=O)O)C(=O)N[C@@H](CC(C)C)C(=O)N[C@@H](Cc1c[nH]cn1)C(=O)N[C@@H](CCC(=O)O)C(=O)N[C@@H](CC(C)C)C(=O)N[C@@H](C)C(=O)N[C@H](C(=O)N[C@@H](CC(C)C)C(=O)N1CCC[C@H]1C(=O)N[C@@H](CCCNC(=N)N)C(=O)N[C@H](C(=O)N[C@@H](CCC(=O)O)C(=O)N[C@H](C(=O)NCC(=O)N[C@@H](CO)C(=O)NCC(=O)N1CCC[C@H]1C(=O)N1CCC[C@H]1C(N)=O)[C@@H](C)O)[C@@H](C)O)[C@@H](C)O
[1]
  hAmylin-R funct. EC50 (pM): 80 pM
[2]
  hCTR funct. EC50 (pM): 19 pM

B5: [N-terminal(C20 diacid-gGlu), des1, 12H, 30S, 31G]mimylin (peptide)
peptide: {C20 diacid-γGlu}-ASELSTAALGHLSAELHELATLPRTETGSGSP-NH2
[1]
  hAmylin-R funct. EC50 (pM): 17 pM
[2]
  hCTR funct. EC50 (pM): 12 pM

B6: [N-terminal(C16)]mimylin (peptide)
peptide: Palmitoyl-EASELSTAALGRLSAELHELATLPRTETGPESP-NH2
[1]
  hAmylin-R funct. EC50 (pM): 10 pM
[2]
  hCTR funct. EC50 (pM): 13 pM

B7: [N-terminal(acetyl), des1, 16K(C20 diacid-gGlu), 30S, 31G]mimylin (peptide)
peptide: Ac-ASELSTAALGRLSAK([γGlu-C20 diacid])LHELATLPRTETGSGSP-NH2
[1]
  hAmylin-R funct. EC50 (pM): 21 pM
[2]
  hCTR funct. EC50 (pM): 28 pM

B8: [N-terminal(acetyl), des1, 4K(C20 diacid-gGlu), 30S, 31G]mimylin (peptide)
peptide: Ac-ASK([γGlu-C20 diacid])LSTAALGRLSAELHELATLPRTETGSGSP-NH2
[1]
  hAmylin-R funct. EC50 (pM): 36 pM
[2]
  hCTR funct. EC50 (pM): 27 pM

B9: [N-terminal(C20 diacid-gGlu), des1, 25H, 30S, 31G]mimylin (peptide)
peptide: {C20 diacid-γGlu}-ASELSTAALGRLSAELHELATLPHTETGSGSP-NH2
SMILES: CC(C)C[C@H](NC(=O)[C@H](C)NC(=O)[C@H](C)NC(=O)[C@@H](NC(=O)[C@H](CO)NC(=O)[C@H](CC(C)C)NC(=O)[C@H](CCC(=O)O)NC(=O)[C@H](CO)NC(=O)[C@H](C)NC(=O)CC[C@H](NC(=O)CCCCCCCCCCCCCCCCCCC(=O)O)C(=O)O)[C@@H](C)O)C(=O)NCC(=O)N[C@@H](CCCNC(=N)N)C(=O)N[C@@H](CC(C)C)C(=O)N[C@@H](CO)C(=O)N[C@@H](C)C(=O)N[C@@H](CCC(=O)O)C(=O)N[C@@H](CC(C)C)C(=O)N[C@@H](Cc1c[nH]cn1)C(=O)N[C@@H](CCC(=O)O)C(=O)N[C@@H](CC(C)C)C(=O)N[C@@H](C)C(=O)N[C@H](C(=O)N[C@@H](CC(C)C)C(=O)N1CCC[C@H]1C(=O)N[C@@H](Cc1c[nH]cn1)C(=O)N[C@H](C(=O)N[C@@H](CCC(=O)O)C(=O)N[C@H](C(=O)NCC(=O)N[C@@H](CO)C(=O)NCC(=O)N[C@@H](CO)C(=O)N1CCC[C@H]1C(N)=O)[C@@H](C)O)[C@@H](C)O)[C@@H](C)O
[1]
  hAmylin-R funct. EC50 (pM): 27 pM
[2]
  hCTR funct. EC50 (pM): 18 pM

B10: [N-terminal(C18 diacid-gGlu), des1, 9V, 30S, 31G]mimylin (peptide)
peptide: {C18 diacid-γGlu}-ASELSTAVLGRLSAELHELATLPRTETGSGSP-NH2
SMILES: CC(C)C[C@H](NC(=O)[C@H](CCC(=O)O)NC(=O)[C@H](Cc1c[nH]cn1)NC(=O)[C@H](CC(C)C)NC(=O)[C@H](CCC(=O)O)NC(=O)[C@H](C)NC(=O)[C@H](CO)NC(=O)[C@H](CC(C)C)NC(=O)[C@H](CCCNC(=N)N)NC(=O)CNC(=O)[C@H](CC(C)C)NC(=O)[C@@H](NC(=O)[C@H](C)NC(=O)[C@@H](NC(=O)[C@H](CO)NC(=O)[C@H](CC(C)C)NC(=O)[C@H](CCC(=O)O)NC(=O)[C@H](CO)NC(=O)[C@H](C)NC(=O)CC[C@H](NC(=O)CCCCCCCCCCCCCCCCC(=O)O)C(=O)O)[C@@H](C)O)C(C)C)C(=O)N[C@@H](C)C(=O)N[C@H](C(=O)N[C@@H](CC(C)C)C(=O)N1CCC[C@H]1C(=O)N[C@@H](CCCNC(=N)N)C(=O)N[C@H](C(=O)N[C@@H](CCC(=O)O)C(=O)N[C@H](C(=O)NCC(=O)N[C@@H](CO)C(=O)NCC(=O)N[C@@H](CO)C(=O)N1CCC[C@H]1C(N)=O)[C@@H](C)O)[C@@H](C)O)[C@@H](C)O
[1]
  hAmylin-R funct. EC50 (pM): 10 pM
[2]
  hCTR funct. EC50 (pM): 14 pM

B11: [N-terminal(C18 diacid), 5I, 9I, 10I, 20I]mimylin (peptide)
peptide: {C18 diacid}-EASEISTAIIGRLSAELHEIATLPRTETGPESP-NH2
SMILES: CC[C@H](C)[C@H](NC(=O)[C@H](C)NC(=O)[C@@H](NC(=O)[C@H](CO)NC(=O)[C@@H](NC(=O)[C@H](CCC(=O)O)NC(=O)[C@H](CO)NC(=O)[C@H](C)NC(=O)[C@H](CCC(=O)O)NC(=O)CCCCCCCCCCCCCCCCC(=O)O)[C@@H](C)CC)[C@@H](C)O)C(=O)N[C@H](C(=O)NCC(=O)N[C@@H](CCCNC(=N)N)C(=O)N[C@@H](CC(C)C)C(=O)N[C@@H](CO)C(=O)N[C@@H](C)C(=O)N[C@@H](CCC(=O)O)C(=O)N[C@@H](CC(C)C)C(=O)N[C@@H](Cc1c[nH]cn1)C(=O)N[C@@H](CCC(=O)O)C(=O)N[C@H](C(=O)N[C@@H](C)C(=O)N[C@H](C(=O)N[C@@H](CC(C)C)C(=O)N1CCC[C@H]1C(=O)N[C@@H](CCCNC(=N)N)C(=O)N[C@H](C(=O)N[C@@H](CCC(=O)O)C(=O)N[C@H](C(=O)NCC(=O)N1CCC[C@H]1C(=O)N[C@@H](CCC(=O)O)C(=O)N[C@@H](CO)C(=O)N1CCC[C@H]1C(N)=O)[C@@H](C)O)[C@@H](C)O)[C@@H](C)O)[C@@H](C)CC)[C@@H](C)CC
[1]
  hAmylin-R funct. EC50 (pM): 10 pM
[2]
  hCTR funct. EC50 (pM): 6 pM
